Numbering of substitutions follows the chain as printed. Blank lines part the entries; values can stand above or below the molecule they belong to.
Legend:
human monomeric IL-8 = human monomeric IL-8 mediated neutrophil chemotaxis; type: cell-based
Method: Human neutrophils were isolated, counted and resuspended at 5×10^6 cells/ml in Hank's balanced salt solution (abbreviated HBSS; without calcium and magnesium) with 0.1% bovine serum albumin. The neutrophils were labeled by adding calcein AM (Molecular Probe, Eugene, Oreg.) at a final concentration of 2.0 μM. Following a 30 minute incubation at 37° C., cells were washed twice with HBSS-BSA and resuspended at 5×10^6 cells/ml.
Chemotaxis experiments were carried out in a Neuro Probe (Cabin John, Md.) 96-well chamber, model MBB96. Experimental samples (buffer only control, IL-8 alone or IL-8+Fabs) were loaded in a Polyfiltronics 96-well View plate (Neuro Probe Inc.) placed in the lower chamber. […]
The relative number of neutrophils migrating through the filter (Neutrophil migration index) was determined by measuring fluorescence intensity of the filter and the fluorescence intensity of the contents of the lower chamber and adding the two values together. Fluorescence intensity was measured with a CytoFluor 2300 fluorescent plate reader (Millipore Corp. Bedford, Mass.) configured to read a Corning 96-well plate using the 485-20 nm excitation filter and a 530-25 emission filter, with the sensitivity set at 3.

IL-8 = IL-8 (Homo sapiens, UniProt P10145); test: KinEXA equilibrium and kinetic measurements; type: binding; settings: read-out: equilibrium constant (Kd)
Sequence of IL-8 (P10145 28-99 limits assumed): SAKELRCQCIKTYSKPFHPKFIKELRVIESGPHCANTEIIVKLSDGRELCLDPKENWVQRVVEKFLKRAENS
Method: The beads were resuspended in assay buffer (0.1% bovine serum albumin in PBS) to a final volume of 30 ml.
The equilibrium constant (Kd) was calculated using the software provided by Sapidyne Instruments Inc.

- IC50 (human monomeric IL-8): ~15 nM
B1: F(ab)-9: humanized variant, F(ab)-6 with GluH6Gln (protein)
light: DIQMTQSPSSLSASVGDRVTITCRSSQSLVHGIGNTYLHWYQQKPGKAPKLLIYKVSNRFSGVPSRFSGSGSGTDFTLTISSLQPEDFATYYCSQSTHVPLTFGQGTKVEIKRTVAAPSVFIFPPSDEQLKSGTASVVCLLNNFYPREAKVQWKVDNALQSGNSQESVTEQDSKDSTYSLSSTLTLSKADYEKHKVYACEVTHQGLSSPVTKSFNRGEC
heavy: EVQLVQSGGGLVQPGGSLRLSCAASGYSFSSHYMHWVRQAPGKGLEWVGYIDPSNGETTYNQKFKGRFTLSRDNSKNTAYLQMNSLRAEDTAVYYCARGDYRYNGDWFFDVWGQGTLVTVSSASTKGPSVFPLAPSSKSTSGGTAALGCLVKDYFPEPVTVSWNSGALTSGVHTFPAVLQSSGLYSLSSVVTVPSSSLGTQTYICNVNHKPSNTKVDKKVEPKSCDKTHT

- Kd (IL-8): ~0.049 nM
B2: 6G4V11N35E IgG1: full length IgG1 version of humanized anti-IL8 variant 6G4V11N35E (protein)
light: B1 light with N35E
heavy: B1 heavy

Source: patent publication US6025158A, “Nucleic acids encoding humanized anti-IL-8 monoclonal antibodies” (Genentech, Inc., dated 2000)
